According to US20220153796A1 (IMMATICS BIOTECHNOLOGIES, published 2022):

These binders were tested against HLA-B*07 (human) (assay: UV peptide exchange ELISA).
From the text: (§1) Candidate peptides for T cell based therapies according to the present invention were further tested for their MHC binding capacity (affinity). The individual peptide-MHC complexes were produced by UV-ligand exchange, where a UV-sensitive peptide is cleaved upon UV-irradiation, and exchanged with the peptide of interest as analyzed. Only peptide candidates that can effectively bind and stabilize the peptide-receptive MHC molecules prevent dissociation of the MHC complexes. To determine the yield of the exchange reaction, an ELISA was performed based on the detection of the light chain (β2m) of stabilized MHC complexes. The assay was performed as generally described in Rodenko et al. (Rodenko et al., 2006).
(§2) 96 well MAXISorp plates (NUNC) were coated over night with 2 ug/ml streptavidin in PBS at room temperature, washed 4× and blocked for 1 h at 37° C. in 2% BSA containing blocking buffer. […] Peptide-MHC monomers of the UV-exchange reaction were diluted 100-fold in blocking buffer. Samples were incubated for 1 h at 37° C., washed four times, incubated with 2 ug/ml HRP conjugated anti-β2m for 1h at 37° C., washed again and detected with TMB solution that is stopped with […]. Absorption was measured at 450 nm.

| peptide exchange yield | Binder |
| --- | --- |
| 10 to 20% | SAYPQRLEI |

Each binder was assayed against HLA-A*03 (human) (assay: UV peptide exchange ELISA).
From the text: as §1, §2

| peptide exchange yield | Binder |
| --- | --- |
| 50 to 75% | KTLVAELLILK |
| 50 to 75% | KLYAWELAF |

Each binder was assayed against HLA-A*02 (human) (assay: UV peptide exchange ELISA).

| peptide exchange yield | Binder |
| --- | --- |
| 10 to 20% | ALCLLLHLL |
| 20 to 50% | LMAFFLAVV |

The binders below were run against HLA-A*01 (human) (assay: UV peptide exchange ELISA).

| peptide exchange yield | Binder |
| --- | --- |
| 10 to 20% | WMFFVINY |
| 10 to 20% | VVADTKMIEY |
| > 75% | ATDLVVLDRY |
| > 75% | ECDMAFHIY |
| > 75% | VVDSVGGYLY |
| > 75% | ASEQQALHTVQY |
| > 75% | VTDGSLYEGVAY |
| > 75% | NTDNNLAVY |
